For the experiment, the target named is T1, BSAP-1 (BF638R_1646), recombinant soluble protein with N-terminal His tag (Bacteroides fragilis 638R, UniProt E1WTV1 17-372).
T1 construct: BSAP-1 of Bacteroides fragilis 638R (BF638R_1646, GenBank CBW22174.1), without the N-terminal signal peptide and the lipidated cysteine (C16); the protein ends at P372; a Ser-Ser-Gly linker follows the His tag; Limits follow from 'excluding the signal peptide and conserved cysteine' (C16) and the CTD's end at P372; no cleavage of the tag is told; also called full-length BSAP-1; purified BSAP-1; …
T1 sequence: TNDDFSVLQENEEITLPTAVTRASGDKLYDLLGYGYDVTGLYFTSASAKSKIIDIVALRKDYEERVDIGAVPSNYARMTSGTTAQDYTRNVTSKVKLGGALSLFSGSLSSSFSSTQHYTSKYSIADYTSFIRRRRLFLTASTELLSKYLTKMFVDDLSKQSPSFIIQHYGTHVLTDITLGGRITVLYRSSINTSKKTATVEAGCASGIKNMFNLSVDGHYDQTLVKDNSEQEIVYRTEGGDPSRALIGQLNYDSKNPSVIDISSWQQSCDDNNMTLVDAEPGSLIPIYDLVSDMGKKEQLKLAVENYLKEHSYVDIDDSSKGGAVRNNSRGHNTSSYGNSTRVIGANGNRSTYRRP
Briefly: cryo-EM structure; peak 1 fractions of the BSAP-1 pull-down, in DDM, graphene oxide coated grids; map of the complex ~7 Å, local refinement on B1R^S 4.45 Å. As to conditions: one partner purified.

B1: B1R^S, BSAP-1 receptor (BF9343_1563), untagged, overexpressed in Bacteroides thetaiotaomicron (receptor, Bacteroides fragilis NCTC 9343, UniProt Q5LEV6 1-556, looked up)
chain: QTVYDAAKITGKDLNGTARFVGMGGAMGALGGDISTIGTNPAGIGIYRSNDFMTSFGFSSYGTESKYLGDKFKSDKIQGSFDNLGFVFASKIGNETSLRYVNFGFNYHKAKSFYKNMNMKGGLGNSSQTYQMAQQASGITKWGDYPYDDPEIGWLSILGYDGWLISDITTDKMNAAGKPNSPYVDKDGNQRYDANGKPLYTTPGNYYGMYDDGVANFHSQERGGIDQYDFNVAFNFNDRFYLGLTLGAYAVDYSKYTYYSEAYTGANAPQNYNLRSWNKVRGSGFDLKLGTIIRPFENSPFRIGLAIHTPTFYNLDYKTSARVESDVLNVETGKIDQWSVDTRDKLPGNGDMVREFRLQTPWTYNVSLGYTIGTSLALGAEYEYQDYSTMKFRGPTGSSSEFTFENSTRPMMKGVNTLRLGLEYKVIPQFALRAGYNYTSAIFHGDAFKDLPYYSIQTDTDWANTKALSNYTLGIGYRGSVFYADLAYKFSTYNEDFYPFVNKYEENNATTVLTPETTKVTNTRSQVLFTLGLRF
notes: B1R^S, outer membrane beta-barrel protein of Bacteroides fragilis NCTC 9343 (BF9343_1563, GenBank CAH07344.1); theoretical molecular weight 62 kDa; untagged; in the pull-down it stood in a membrane fraction, in microscopy on cells
As to B1, the “stoichiometry N” value stood at 1.

Usually stoichiometry N stands for a count of units in the complex or per binding partner.

Source of the values: PMC12853789, “Identification of receptor-binding domains of Bacteroidales antibacterial pore-forming toxins” (The Journal of Biological Chemistry, 2025).
